Laboratory results: patent publication US7645740B2, “Peptide sequence found in Laminin 5 for treating skin impairments” (Laboratoires d'Anjou Centre National de la Recherche …, priority 2004, dated 2010)

Assays:
[1] = system: A431 cells; experiment: Cell proliferation test (XTT), A431; assay type: cell-based; conditions: A431, peptide 0.5% and 1%, serum-free medium, 5th hour
Method: A431 cells were seeded in 96-well plates at a rate of 10,000 cells per well. After 24 hours, the culture medium was removed and replaced with serum-free medium containing the peptide quantities given in the graphs and reagent XTT. The plates were then placed in the incubator at 37° C. and absorbance readings were taken at 1 h, 2 h, 3 h, 4 h and 5 h. Peptide-free controls were carried out on the same plate.
The effect of the peptide on cell proliferation was analysed with the aid of a calorimetric test (Cell Proliferation Kit XTT, Roche Diagnostics, Meylan, France) on the cells use for the cell adhesion test, i.e. HT1080, A431, HBL100 cells and normal human keratinocytes from young and elderly individuals.
The chemical reaction used in the test is based on the production of NADPH by living cells, leading to the reduction of yellow tetrazolium XTT salts to orange formazan salts. Absorbance was measured at 490 nm using an ELISA plate reader. […] After 24 hours in culture at 37° C. with 5% CO2, the culture medium was removed and replaced with serum-free medium containing the peptide quantities given in the graphs and the test reagent. The plates were then placed in the incubator at 37° C. and absorbance readings were taken at 1 h, 2 h, 3 h, 4 h and 5 h. […] In this case, cell viability was calculated according to the following formula: % viability=(Abs. Cells with peptide/Abs. Control cells)×100.

[2] = Quantity of peptide immobilized on 96-well plates by amino acid analysis; conditions: 18 hours at +4° C.
Method: The peptide was diluted in sterile PBS. Samples containing the peptide to be assayed were lyophilized by evaporation. They were deposited in a reactor and placed under vacuum in order to eliminate oxygen likely to oxidize certain amino acids. Hydrolysis of the peptide bonds was carried out in a hydrochloric acid mixture (HCL 6N, ⅔), trifluoroacetic acid (TFA, ⅓) at 150° C. for 45 minutes. Gas hydrolysis prevented contamination by ions present in the acids. The samples were then dried and dissolved in a suitable buffer for ion-exchange chromatography (sodium citrate). Ion-exchange chromatography makes it possible to separate amino acids according to their ionic strength and, on leaving the column, they react with a reagent (ninhydrin) to form a dyed complex with primary amines (violet, readable at 570 nm). Ninhydrin also reacts with secondary amines (proline, hydroxyproline) to form a yellow compound that can be read at 440 nm. Two separate chromatograms allow the samples to be analysed.
A semi-automatic Beckman 6300 analyser optimised for this analysis was used along with Beckman Gold software in order to quantify the chromatograms. […]
FIG. 17 gives the data obtained in the experiments aimed at identifying the assay conditions for the peptide deposited in 96-well plates and not immobilized. Five experiments were carried out with decreasing quantities of peptide, from 5 μg to 0.7 μg. […]

Sequence: TALRIRATYGEY (Human laminin 5) [Peptide 1]
- mean increase in cell proliferation compared to the control [1]: 8%
- quantity of peptide remaining in the supernatant after immobilization, of quantity added ([2]; 3.55 μg, 2.56 μg, 1.23 μg and 0.73 μg deposited): approximately 90%
- mean quantity remaining in solution in the wells ([2]; Q1, average starting quantity 2.44 μg, five supernatants): 2.212 µg
